Source: the Immune Epitope Database (IEDB)
pIC50, pKd: −log10 of the molar value.

How the values were obtained:
HLA-A*30:02 = assay: IEDB peptide-MHC binding, purified MHC/competitive/radioactivity; filed as Kd, often an IC50 or EC50 that approximates it; ≥ and ≤ were set here for values at or beyond the usual limits of such assays; conditions: source organism: Dengue virus 2 Jamaica/1409/1983
HLA-A*03:01 = assay: IEDB peptide-MHC binding, purified MHC/direct/fluorescence; filed as Kd, often an IC50 or EC50 that approximates it; ≥ and ≤ were set here for values at or beyond the usual limits of such assays; conditions: source organism: Mammarenavirus juninense
HLA-A*02:02 = assay: IEDB peptide-MHC binding, purified MHC/competitive/radioactivity; filed as Kd, often an IC50 or EC50 that approximates it; ≥ and ≤ were set here for values at or beyond the usual limits of such assays
HLA-A*02:03 = assay: as above
HLA-A*02:06 = assay: as above
HLA-A*26:01 = assay: as above
HLA-A*23:01 = assay: as above
HLA-A*24:02 = assay: as above
HLA-A*01:01 = assay: as above
HLA-A*02:01 = assay: IEDB peptide-MHC binding, purified MHC/competitive/fluorescence; ≥ and ≤ were set here for values at or beyond the usual limits of such assays
HLA-B*15:01 = assay: IEDB peptide-MHC binding, purified MHC/direct/fluorescence; filed as Kd, often an IC50 or EC50 that approximates it; ≥ and ≤ were set here for values at or beyond the usual limits of such assays; conditions: source organism: Salmonella enterica subsp. enterica serovar Typhimurium
[1] = source organism: Vaccinia virus WR
[2] = source organism: SARS coronavirus Tor2
[3] = source organism: Dengue virus 4 Philippines/H241/1956
[4] = source organism: Dengue virus 1 Brazil/97-11/1997
[5] = source organism: Mammarenavirus guanaritoense
[6] = source organism: Dengue virus 2 Jamaica/1409/1983

| Sequence | pKd (HLA-A*02:02; [1]) | pKd (HLA-A*02:03; [1]) | pKd (HLA-A*02:06; [1]) | further results |
| --- | --- | --- | --- | --- |
| SKKEGGAMY |  |  |  | pKd (HLA-A*30:02): ≤ 4.11 |
| SLFNRGRLK |  |  |  | pKd (HLA-A*03:01): 7.37 |
| SLVITYCLV | 5.77 | 6.70 | 6.57 |  |
| SQMETDFLEL |  |  |  | pKd (HLA-A*02:02; [2]): 6.64; pKd (HLA-A*02:03; [2]): 6.22; pKd (HLA-A*02:06; [2]): 7.69 |
| STITLLCLI |  |  |  | pKd (HLA-A*26:01; source organism: Dengue virus 4 Dominica/814669/1981): 6.06 |
| SWILRNPGF |  |  |  | pKd (HLA-A*23:01; [3]): 6.30; pKd (HLA-A*24:02; [3]): 6.43 |
| TLFIDRGSI | 5.68 | 6.10 | ≤ 4.11 |  |
| TTENAAYQVL | ≤ 4.53 | ≤ 4.15 | ≤ 4.16 |  |
| TTIGTIAGGV | 6.13 | 7.37 | 7.07 |  |
| TTLLNETAKV | 5.79 | 9.77 | 5.78 |  |
| TWMDLLRALI |  |  |  | pKd (HLA-A*23:01; [3]): 7.66; pKd (HLA-A*24:02; [3]): 6.89 |
| TWVTYGTCTT |  |  |  | pKd (HLA-A*24:02; source organism: Dengue virus 2 Peru/IQT2913/1996): ≤ 4.15 |
| VFGSVYTTMF |  |  |  | pKd (HLA-A*23:01; [3]): 7.24; pKd (HLA-A*24:02; [3]): 5.93 |
| VFGTAYGVLF |  |  |  | pKd (HLA-A*23:01; [4]): 7.46; pKd (HLA-A*24:02; [4]): 7.13 |
| VFHELPSLC |  |  |  | pKd (HLA-A*01:01; [5]): ≤ 4.11; pKd (HLA-A*26:01; [5]): ≤ 4.11 |
| VFTTNIWLK |  |  |  | pKd (HLA-A*23:01; [6]): ≤ 4.51 |
| VHTWTEQYKF |  |  |  | pKd (HLA-A*23:01; [6]): 6.05; pKd (HLA-A*24:02; [6]): 5.42 |
| VIDLEPISY |  |  |  | pKd (HLA-A*01:01; [3]): 7.29 |
| VIPDELIDV | 6.22 | 7.36 | 6.25 |  |
| VLALYSPPL | 9.65 | 9.39 | 7.49 |  |
| WIPYFGPAA |  |  |  | pIC50 (HLA-A*02:01; source organism: Zaire ebolavirus): 6.05 |
| YAGTIKESL | 5.68 | 5.60 | 5.48 |  |
| YIFFASFYYI |  |  |  | pKd (HLA-A*02:02; [2]): 9.34; pKd (HLA-A*02:03; [2]): 7.22; pKd (HLA-A*02:06; [2]): 9.10 |
| YLGPRVCWL | 9.05 | 8.47 | 7.63 |  |
| YNIDKIKDV |  |  |  | pIC50 (HLA-A*02:01; source organism: Vaccinia virus): 5.04 |
| YQRPFGGQS |  |  |  | pKd (HLA-B*15:01): 5.43 |
| YVEHDPRLV | 5.93 | 6.15 | ≤ 4.65 |  |
| YVHEGVSYEV | 7.89 | 7.15 | 8.04 |  |
